Positions count from the first letter of the chain named.
B1: IgG1-F561 (antibody)
heavy: QVQLQESGPGLVKPSETLSLTCAVSGHSISHDHAWSWVRQPPGEGLEWIGFISYSGITNYNPSLQGRVTISRDNSKNTLYLQMNSLRAEDTAVYYCARSLARTTAMDYWGEGTLVTVSSASTKGPSVFPLAPSSKSTSGGTAALGCLVKDYFPEPVTVSWNSGALTSGVHTFPAVLQSSGLYSLSSVVTVPSSSLGTQTYICNVNHKPSNTKVDKKVEPKSCDKTHTCPPCPAPELLGGPSVFLFPPKPKDTLYITRTPEVTCVVVDVSHEDPEVKFNWYVDGVEVHNAKTKPREEQYNSTYRVVSVLAVLHQDWLNGKEYKCKVSNKALPAPIEKTISKAKGQPREPQVYTLPPSRDELTKNQVSLTCLVKGFYPSDIAVEWESNGQPENNYKTTPPVLDSDGSFFLYSKLTVDKSRWQQGNVFSCSVMHEALHYHYTQKSLSLSP
light: not shown
notes: EU numbering; copies: 2 + 2
B2: IgG1-F562 (antibody)
heavy: B1 heavy with A309Q
light: not shown
notes: EU numbering; copies: 2 + 2
B3: IgG1-F563 (antibody)
heavy: B1 heavy with A309T, Q313A
light: not shown
notes: EU numbering; copies: 2 + 2
B4: IgG1-F564 (antibody)
heavy: B1 heavy with A309T, Q313H
light: not shown
notes: EU numbering; copies: 2 + 2
B5: IgG1-F565 (antibody)
heavy: B1 heavy with Q313A
light: not shown
notes: EU numbering; copies: 2 + 2
B6: IgG1-F566 (antibody)
heavy: B1 heavy with A309Q, Q313A
light: not shown
notes: EU numbering; copies: 2 + 2
B7: IgG1-F567 (antibody)
heavy: B1 heavy with A309T, M430I
light: not shown
notes: EU numbering; copies: 2 + 2
B8: IgG1-F568 (antibody)
heavy: B1 heavy with T256S, T258E, Q313H
light: not shown
notes: EU numbering; copies: 2 + 2
B9: IgG1-F569 (antibody)
heavy: B1 heavy with T256S, T258Q, Q313H
light: not shown
notes: EU numbering; copies: 2 + 2
B10: IgG1-F570 (antibody)
heavy: B1 heavy with Q313H
light: not shown
notes: EU numbering; copies: 2 + 2
B11: IgG1-F571 (antibody)
heavy: B1 heavy with T256S, N288E, Q313H
light: not shown
notes: EU numbering; copies: 2 + 2
B12: IgG1-F572 (antibody)
heavy: B1 heavy with T256S, Q313H, M430I
light: not shown
notes: EU numbering; copies: 2 + 2
B13: IgG1-F576 (antibody)
heavy: B1 heavy with T256S, T258E, A309Q, Q313H, Y436N
light: not shown
notes: EU numbering; copies: 2 + 2
B14: IgG1-F577 (antibody)
heavy: B1 heavy with T256S, N288E, Q313A, Y436N
light: not shown
notes: EU numbering; copies: 2 + 2
B15: IgG1-F578 (antibody)
heavy: B1 heavy with T256S, N288E, A309Q, Q313A, Y436N
light: not shown
notes: EU numbering; copies: 2 + 2
B16: IgG1-F580 (antibody)
heavy: B1 heavy with T256S, N288E, A309Q, Q313H, Y436N
light: not shown
notes: EU numbering; copies: 2 + 2
B17: IgG1-F581 (antibody)
heavy: B1 heavy with T256S, T258E, N288E, A309T
light: not shown
notes: EU numbering; copies: 2 + 2
B18: IgG1-F582 (antibody)
heavy: B1 heavy with S241K, T256S, A309T, V310P, Y436N
light: not shown
notes: EU numbering; copies: 2 + 2
B19: IgG1-F583 (antibody)
heavy: B1 heavy with S241K, T256S, A309T, V310P, E384A, Y436N
light: not shown
notes: EU numbering; copies: 2 + 2
B20: IgG1-F584 (antibody)
heavy: B1 heavy with S241K, T256S, T258E, A309T, V310P, Y436N
light: not shown
notes: EU numbering; copies: 2 + 2
B21: IgG1-F585 (antibody)
heavy: B1 heavy with S241K, T256S, N288E, A309T, V310P, Y436N
light: not shown
notes: EU numbering; copies: 2 + 2
B22: IgG1-F586 (antibody)
heavy: B1 heavy with S241K, T256S, N288E, A309T, V310P, M430I, Y436N
light: not shown
notes: EU numbering; copies: 2 + 2
B23: IgG1-F587 (antibody)
heavy: B1 heavy with T256S, N288E, A309T, M430L
light: not shown
notes: EU numbering; copies: 2 + 2
B24: IgG1-F592 (antibody)
heavy: B1 heavy with A309T, E384A
light: not shown
notes: EU numbering; copies: 2 + 2
B25: IgG1-F593 (antibody)
heavy: B1 heavy with S241K, A309T, V310P, M430I
light: not shown
notes: EU numbering; copies: 2 + 2
B26: IgG1-F594 (antibody)
heavy: B1 heavy with S241K, T256S, T258E, A309T, V310P, M430I
light: not shown
notes: EU numbering; copies: 2 + 2
B27: IgG1-F595 (antibody)
heavy: B1 heavy with S241K, T256S, A309T, M430I
light: not shown
notes: EU numbering; copies: 2 + 2
B28: IgG1-F596 (antibody)
heavy: B1 heavy with T256S, A309T, D314A, E384A, M430Y
light: not shown
notes: EU numbering; copies: 2 + 2
B29: IgG1-F597 (antibody)
heavy: B1 heavy with T256S, A309T, E384A, P389E
light: not shown
notes: EU numbering; copies: 2 + 2
B30: IgG1-F598 (antibody)
heavy: B1 heavy with T256S, A309T, D314A, P389E
light: not shown
notes: EU numbering; copies: 2 + 2
B31: IgG1-F599 (antibody)
heavy: B1 heavy with T256S, A309T, P389E, M430Y
light: not shown
notes: EU numbering; copies: 2 + 2
B32: IgG1-F600 (antibody)
heavy: B1 heavy with T256S, T258Q, A309T, E384A
light: not shown
notes: EU numbering; copies: 2 + 2
B33: IgG1-F601 (antibody)
heavy: B1 heavy with T256S, N288E, A309T, V310P
light: not shown
notes: EU numbering; copies: 2 + 2
B34: IgG1-F611 (antibody)
heavy: B1 heavy with T256S, V307T, A309P, V310I, L311A
light: not shown
notes: EU numbering; copies: 2 + 2
B35: IgG1-F612 (antibody)
heavy: B1 heavy with T256S, A309P, V310I, L311A
light: not shown
notes: EU numbering; copies: 2 + 2
B36: IgG1-F618 (antibody)
heavy: B1 heavy with S241K, Y254M, T256S, A309T, V310F
light: not shown
notes: EU numbering; copies: 2 + 2
B37: IgG1-F619 (antibody)
heavy: B1 heavy with S241K, T256S, A309T
light: not shown
notes: EU numbering; copies: 2 + 2
B38: IgG1-F620 (antibody)
heavy: B1 heavy with S241K, A309T
light: not shown
notes: EU numbering; copies: 2 + 2
B39: IgG1-F621 (antibody)
heavy: B1 heavy with S241K, T256S, Q313H
light: not shown
notes: EU numbering; copies: 2 + 2
B40: IgG1-F622 (antibody)
heavy: B1 heavy with S241K, T256S, T258Q, A309T
light: not shown
notes: EU numbering; copies: 2 + 2
B41: IgG1-F623 (antibody)
heavy: B1 heavy with S241K, Y254W, T256S, A309T, Y436W
light: not shown
notes: EU numbering; copies: 2 + 2
B42: IgG1-F624 (antibody)
heavy: B1 heavy with S241K, Y254M, T256S, P259A, N288E, A309Q, M430L
light: not shown
notes: EU numbering; copies: 2 + 2
B43: IgG1-F625 (antibody)
heavy: B1 heavy with S241K, Y254M, T256S, P259A, A309Q, M430L
light: not shown
notes: EU numbering; copies: 2 + 2
B44: IgG1-F629 (antibody)
heavy: B1 heavy with T256S, V281L, A309T, V310P
light: not shown
notes: EU numbering; copies: 2 + 2
B45: IgG1-F630 (antibody)
heavy: B1 heavy with S241K, T256S, V281L, A309T, V310P
light: not shown
notes: EU numbering; copies: 2 + 2
B46: IgG1-F633 (antibody)
heavy: B1 heavy with T256S, V284D, A309T, V310P
light: not shown
notes: EU numbering; copies: 2 + 2
B47: IgG1-F634 (antibody)
heavy: B1 heavy with S241K, T256S, V284D, A309T, V310P
light: not shown
notes: EU numbering; copies: 2 + 2
B48: IgG1-F635 (antibody)
heavy: B1 heavy with T256S, V286K, A309T, V310P
light: not shown
notes: EU numbering; copies: 2 + 2
B49: IgG1-F636 (antibody)
heavy: B1 heavy with S241K, T256S, V286K, A309T, V310P
light: not shown
notes: EU numbering; copies: 2 + 2
B50: IgG1-F637 (antibody)
heavy: B1 heavy with T256S, K290S, A309T, V310P
light: not shown
notes: EU numbering; copies: 2 + 2
B51: IgG1-F638 (antibody)
heavy: B1 heavy with S241K, T256S, K290S, A309T, V310P
light: not shown
notes: EU numbering; copies: 2 + 2
B52: IgG1-F639 (antibody)
heavy: B1 heavy with T256S, A309T, V310P, G387R
light: not shown
notes: EU numbering; copies: 2 + 2
B53: IgG1-F640 (antibody)
heavy: B1 heavy with S241K, T256S, A309T, V310P, G387R
light: not shown
notes: EU numbering; copies: 2 + 2
B54: IgG1-F641 (antibody)
heavy: B1 heavy with T256S, A309T, V310P, Q388K
light: not shown
notes: EU numbering; copies: 2 + 2
B55: IgG1-F642 (antibody)
heavy: B1 heavy with S241K, T256S, A309T, V310P, Q388K
light: not shown
notes: EU numbering; copies: 2 + 2
B56: IgG1-F643 (antibody)
heavy: B1 heavy with L237G, G238R, S241K, T256S, A309T, V310P
light: not shown
notes: EU numbering; copies: 2 + 2
B57: IgG1-F644 (antibody)
heavy: B1 heavy with G238R, S241K, T256S, A309T, V310P
light: not shown
notes: EU numbering; copies: 2 + 2
B58: IgG1-F645 (antibody)
heavy: B1 heavy with S241K, T256S, A309T, V310P, L330R
light: not shown
notes: EU numbering; copies: 2 + 2
B59: IgG1-F646 (antibody)
heavy: B1 heavy with S241K, T256S, N299A, A309T, V310P
light: not shown
notes: EU numbering; copies: 2 + 2
B60: IgG1-F647 (antibody)
heavy: B1 heavy with P240D, T256S, A309T, V310P
light: not shown
notes: EU numbering; copies: 2 + 2

molecular target: T1, human FcRn (soluble human FcRn complexed with β2-microglobulin) (human, UniProt P61769 21-119, limits assumed); test: SPR, pH 7.0;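 also: antibodies captured on a Protein L sensor chip with human FcRn injected as analyte, KD calculated from fitted association and dissociation rate constants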
T1 construct: also called hFcRn
T1 sequence (chain, as listed by the source limits assumed, chain 1 of 2): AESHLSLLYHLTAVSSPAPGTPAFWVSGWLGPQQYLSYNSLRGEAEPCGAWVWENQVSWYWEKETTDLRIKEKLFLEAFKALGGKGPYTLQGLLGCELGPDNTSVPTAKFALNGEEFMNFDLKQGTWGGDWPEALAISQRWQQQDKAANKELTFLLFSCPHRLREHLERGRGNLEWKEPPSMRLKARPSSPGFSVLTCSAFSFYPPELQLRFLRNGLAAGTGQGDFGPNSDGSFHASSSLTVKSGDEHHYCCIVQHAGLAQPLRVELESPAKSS
T1 sequence (P61769 21-119 limits assumed, chain 2 of 2): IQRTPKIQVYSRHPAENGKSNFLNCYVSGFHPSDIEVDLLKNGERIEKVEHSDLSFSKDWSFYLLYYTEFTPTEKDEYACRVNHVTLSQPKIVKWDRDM

Row | Binder | Kd [nM]
1 | B1 | 140
2 | B2 | 83
3 | B3 | 130
4 | B4 | 190
5 | B5 | 92
6 | B6 | 61
7 | B7 | 220
8 | B8 | 110
9 | B9 | 200
10 | B10 | 130
11 | B11 | 81
12 | B12 | 100
13 | B13 | 1600
14 | B14 | 1300
15 | B15 | 570
16 | B16 | 860
17 | B17 | 72
18 | B18 | 750
19 | B19 | 780
20 | B20 | 630

Row | Binder | Kd [nM]
21 | B21 | 290
22 | B22 | 140
23 | B23 | 190
24 | B24 | 200
25 | B25 | 31
26 | B26 | 16
27 | B27 | 180
28 | B28 | 400
29 | B29 | 220
30 | B30 | 140
31 | B31 | 520
32 | B32 | 280
33 | B33 | 9.6
34 | B34 | 280
35 | B35 | 360
36 | B36 | 640
37 | B37 | 310
38 | B38 | 210
39 | B39 | 150
40 | B40 | 350

Row | Binder | Kd [nM]
41 | B41 | 180
42 | B42 | 14
43 | B43 | 76
44 | B44 | 39
45 | B45 | 37
46 | B46 | 24
47 | B47 | 32
48 | B48 | 45
49 | B49 | 48
50 | B50 | 150
51 | B51 | 140
52 | B52 | 27
53 | B53 | 36
54 | B54 | 30
55 | B55 | 30
56 | B56 | 32
57 | B57 | 30
58 | B58 | 33
59 | B59 | 38
60 | B60 | 29
